What was measured:
[1] = target: VH1VL1-CD8ATD-CD137CSD-CD3zSSD fusion
[2] = target: VH2VL1-CD8ATD-CD137CSD-CD3zSSD fusion
[3] = target: VH3VL1-CD8ATD-CD137CSD-CD3zSSD fusion
[4] = target: VL1VH3-CD8ATD-CD137CSD-CD3zSSD fusion
Chain of VL1VH3-CD8ATD-CD137CSD-CD3zSSD fusion (chain, as listed by the source): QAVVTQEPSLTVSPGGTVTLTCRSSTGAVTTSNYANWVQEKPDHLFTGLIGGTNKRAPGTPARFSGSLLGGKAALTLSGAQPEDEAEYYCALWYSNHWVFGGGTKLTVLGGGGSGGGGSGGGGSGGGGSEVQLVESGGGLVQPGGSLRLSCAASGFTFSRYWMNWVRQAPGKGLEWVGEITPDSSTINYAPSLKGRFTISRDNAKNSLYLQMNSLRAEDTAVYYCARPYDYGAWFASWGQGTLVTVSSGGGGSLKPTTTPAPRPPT

Chain of VH1VL1-CD8ATD-CD137CSD-CD3zSSD fusion (chain, as listed by the source): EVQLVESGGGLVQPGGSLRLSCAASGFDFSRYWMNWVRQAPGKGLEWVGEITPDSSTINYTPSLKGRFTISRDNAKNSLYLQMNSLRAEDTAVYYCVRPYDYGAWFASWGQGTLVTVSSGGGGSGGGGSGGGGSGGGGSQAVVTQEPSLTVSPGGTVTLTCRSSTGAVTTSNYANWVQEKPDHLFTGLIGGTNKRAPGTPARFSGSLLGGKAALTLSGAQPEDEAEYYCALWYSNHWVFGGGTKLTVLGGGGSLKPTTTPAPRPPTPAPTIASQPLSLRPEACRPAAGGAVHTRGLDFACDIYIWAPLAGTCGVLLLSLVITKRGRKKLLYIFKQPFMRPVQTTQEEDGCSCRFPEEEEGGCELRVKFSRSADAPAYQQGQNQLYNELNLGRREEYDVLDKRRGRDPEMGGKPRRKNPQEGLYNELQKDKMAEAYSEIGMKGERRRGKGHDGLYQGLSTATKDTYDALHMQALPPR
Chain of VH3VL1-CD8ATD-CD137CSD-CD3zSSD fusion (chain, as listed by the source): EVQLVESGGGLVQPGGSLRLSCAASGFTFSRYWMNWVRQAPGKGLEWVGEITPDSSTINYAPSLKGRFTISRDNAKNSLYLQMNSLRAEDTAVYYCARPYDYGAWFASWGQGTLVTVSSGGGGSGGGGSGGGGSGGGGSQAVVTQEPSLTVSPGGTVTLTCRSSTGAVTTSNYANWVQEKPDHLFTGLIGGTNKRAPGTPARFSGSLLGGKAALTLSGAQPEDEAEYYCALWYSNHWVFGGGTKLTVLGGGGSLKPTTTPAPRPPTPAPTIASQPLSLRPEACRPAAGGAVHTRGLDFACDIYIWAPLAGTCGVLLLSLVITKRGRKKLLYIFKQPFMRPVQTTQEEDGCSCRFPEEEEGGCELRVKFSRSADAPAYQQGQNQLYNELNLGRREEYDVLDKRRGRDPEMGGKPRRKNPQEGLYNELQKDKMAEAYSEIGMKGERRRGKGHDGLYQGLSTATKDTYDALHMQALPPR
Chain of VH2VL1-CD8ATD-CD137CSD-CD3zSSD fusion (chain, as listed by the source): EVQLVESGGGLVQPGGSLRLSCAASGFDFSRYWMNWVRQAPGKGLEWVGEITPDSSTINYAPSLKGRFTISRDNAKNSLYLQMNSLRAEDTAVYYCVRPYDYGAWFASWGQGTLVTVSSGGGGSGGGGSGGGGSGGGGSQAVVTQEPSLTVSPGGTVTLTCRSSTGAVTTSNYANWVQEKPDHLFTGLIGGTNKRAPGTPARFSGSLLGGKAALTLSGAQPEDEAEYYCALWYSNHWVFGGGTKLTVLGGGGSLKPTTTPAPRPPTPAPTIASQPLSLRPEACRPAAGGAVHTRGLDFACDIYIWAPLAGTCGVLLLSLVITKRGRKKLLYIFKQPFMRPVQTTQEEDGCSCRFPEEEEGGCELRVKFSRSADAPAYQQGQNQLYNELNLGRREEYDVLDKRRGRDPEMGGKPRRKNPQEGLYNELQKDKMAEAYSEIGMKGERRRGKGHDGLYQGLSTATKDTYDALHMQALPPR

EC50 of NFAT-luciferase activation of anti-P329G CAR Jurkat cells, WSUDLCL2 target cells (5:1); VH1 x VL1 [1]: 8.14 pM | EC50 of NFAT-luciferase activation of anti-P329G CAR Jurkat cells, WSUDLCL2 target cells (5:1); table row VH2 x VL1 [2]: 10.4 pM | EC50 of NFAT-luciferase activation of anti-P329G CAR Jurkat cells, WSUDLCL2 target cells (5:1); VH3 x VL1 [3]: 5.82 pM | EC50 of NFAT-luciferase activation of anti-P329G CAR Jurkat cells, WSUDLCL2 target cells (5:1); VL1 x VH 3 [4]: 6.19 pM
Substance: anti-CD20 (GA101) D246A P329G IgG1 (antibody)

— US20240269176A1
